Data reported in patent US20220110851A1.

Key:
[1] = target: acetylcholine receptor on AchR-overexpressed TE671 cells; assay: cell-based or functional assay
[2] = target: acetylcholine receptor protein; assay: SPR, AchR on CM5 chip, positive control

Row | Substance | IC50 value for AchR (AchR inhibitory effect in TE671 cells) [1] [µM] | Kd [2] [µM]
1 | bungarotoxin | 0.0075 | 
2 | Synake (peptide) | 75 | 2300
